In patent US20240174727A1, “LONG-ACTING NATRIURETIC PEPTIDES AND USES THEREOF” (Eli Lilly and Company, priority 2022, published 2024):
Numbering of substitutions follows the chain as printed. Numbered stars: 1 amine (or outer) side, 2 acyl side, 3 side chain; on linkers, the order of the positions; unused ones are H or OH. Bridge positions count the residues as written; N and C are the ends. Square brackets hold non-standard residues; d marks the D form. * marks the point of attachment. thioacetal = thioacetal linkage between two cysteines (intrachain bond at the bracketed Cys); C20 diacid = O=C(O)CCCCCCCCCCCCCCCCCCC(=O)*; γGlu = O=C(O)[C@H](CCC(=O)[*:2])N[*:1]; βAla = NCCC(=O)O

B1: HOOC-(CH2)18-CO-(γGlu)-EKEKEKG-PEG24-S-4Pal-RRSS[CFGKRIDRIGHYSGLGC]PSFRHGSPSSGAPPPS-NH2 (peptide)
peptide: SXRRSSCFGKRIDRIGHYSGLGCPSFRHGSPSSGAPPPS
modifications: N-terminus acylated with HOOC-(CH2)18-CO-(γGlu)-; PEG24 after EKEKEKG; 4Pal; thioacetal linkage between the two bracketed Cys; C-terminal amide
B2: HOOC-(CH2)18-CO-(γGlu)-EKEKEKG-(AEEA)6-S-4Pal-RRSS[CFGKRIDRIGHYSGLGC]PSFRHGSPSSGAPPPS-NH2 (peptide)
peptide: B1 peptide
modifications: N-terminus acylated with HOOC-(CH2)18-CO-(γGlu)-; (AEEA)6 after EKEKEKG; 4Pal; thioacetal linkage between the two bracketed Cys; C-terminal amide
B3: HOOC-(CH2)18-CO-(γGlu)-EKEKEKG-(AEEA)6-EK-βAla-RSS[CFGKRIDRIGHQSGLGC]PSFRHGSPSSGAPPPS-NH2 (peptide)
peptide: B1 peptide with S1E, X2K, R3X, Y18Q
modifications: N-terminus acylated with HOOC-(CH2)18-CO-(γGlu)-; (AEEA)6 after EKEKEKG; βAla; thioacetal linkage between the two bracketed Cys; C-terminal amide
B4: HOOC-(CH2)18-CO-(γGlu)-EKEKEKG-(AEEA)8-EKPRSS[CFGKRIDRIGHYSGLGC]PSFRHGSPSSGAPPPS-NH2 (peptide)
peptide: B1 peptide with S1E, X2K, R3P
modifications: N-terminus acylated with HOOC-(CH2)18-CO-(γGlu)-; (AEEA)8 after EKEKEKG; thioacetal linkage between the two bracketed Cys; C-terminal amide
B5: HOOC-(CH2)18-CO-(γGlu)-EKEKEKG-PEG24-EKPRSS[CFGKRIDRIGHYSGLGC]PSFRHGSPSSGAPPPS-NH2 (peptide)
peptide: B1 peptide with S1E, X2K, R3P
modifications: N-terminus acylated with HOOC-(CH2)18-CO-(γGlu)-; PEG24 after EKEKEKG; thioacetal linkage between the two bracketed Cys; C-terminal amide
B6: HOOC-(CH2)18-CO-(γGlu)-EKEKEKG-(AEEA)6-EKPRSS[CFGKRIDRIGHYSGLGC]PSFRHGSPSSGAPPPS-NH2 (peptide)
peptide: B1 peptide with S1E, X2K, R3P
modifications: N-terminus acylated with HOOC-(CH2)18-CO-(γGlu)-; (AEEA)6 after EKEKEKG; thioacetal linkage between the two bracketed Cys; C-terminal amide
B7: HOOC-(CH2)18-CO-(γGlu)-EKEKEKG-(AEEA)8-EK-βAla-RSS[CFGKRIDRIGHQSGLGC]PSFRHGSPSSGAPPPS-NH2 (peptide)
peptide: B1 peptide with S1E, X2K, R3X, Y18Q
modifications: N-terminus acylated with HOOC-(CH2)18-CO-(γGlu)-; (AEEA)8 after EKEKEKG; βAla; thioacetal linkage between the two bracketed Cys; C-terminal amide

These binders were tested against T1, rat NPRA (rat, UniProt P18910 29-1057) (assay: cell-based or functional assay).
T1 sequence (looked up): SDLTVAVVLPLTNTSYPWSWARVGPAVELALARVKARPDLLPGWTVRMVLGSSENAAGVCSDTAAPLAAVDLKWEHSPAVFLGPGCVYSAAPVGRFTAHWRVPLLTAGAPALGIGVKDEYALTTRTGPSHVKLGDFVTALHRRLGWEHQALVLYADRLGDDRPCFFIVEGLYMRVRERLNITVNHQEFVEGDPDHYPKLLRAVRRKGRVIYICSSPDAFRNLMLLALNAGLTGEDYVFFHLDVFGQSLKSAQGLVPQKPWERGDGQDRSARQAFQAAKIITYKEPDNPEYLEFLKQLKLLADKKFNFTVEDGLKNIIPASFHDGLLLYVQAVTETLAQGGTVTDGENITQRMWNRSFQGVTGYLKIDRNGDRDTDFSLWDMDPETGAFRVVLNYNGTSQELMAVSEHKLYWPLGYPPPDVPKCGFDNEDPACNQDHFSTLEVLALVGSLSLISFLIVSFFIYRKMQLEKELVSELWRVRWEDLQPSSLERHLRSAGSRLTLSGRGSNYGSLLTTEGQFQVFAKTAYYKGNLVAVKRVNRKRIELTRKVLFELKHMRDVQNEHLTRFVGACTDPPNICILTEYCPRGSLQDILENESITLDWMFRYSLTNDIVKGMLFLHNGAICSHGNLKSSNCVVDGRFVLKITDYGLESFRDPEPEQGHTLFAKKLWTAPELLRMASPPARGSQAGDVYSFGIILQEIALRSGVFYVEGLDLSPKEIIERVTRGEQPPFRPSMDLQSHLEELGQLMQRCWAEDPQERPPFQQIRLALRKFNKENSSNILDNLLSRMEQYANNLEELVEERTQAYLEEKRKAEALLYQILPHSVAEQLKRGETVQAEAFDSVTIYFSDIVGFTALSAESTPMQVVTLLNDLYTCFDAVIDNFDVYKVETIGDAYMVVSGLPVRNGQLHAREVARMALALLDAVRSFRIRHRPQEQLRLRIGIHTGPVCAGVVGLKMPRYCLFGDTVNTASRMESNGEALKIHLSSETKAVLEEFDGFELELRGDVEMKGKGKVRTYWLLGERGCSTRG

First: B1
Second: B2
The “cGMP Assay (EC50, pM) w/BSA, rNPRA” value of the first is lower: 100000 pM for the first, 149000 pM for the second.

Compared with {C20 diacid-γGlu}-EKEKEKGEKPRSSCFGKRIDRIGHQSGLGCPSFRHGSGSPSSGAPPPSG-NH2 (bridge 14-30 via thioacetal) [HOOC-(CH2)18-CO-(γGlu)-EKEKEKGEKPRSS[CFGKRIDRIGHQSGLGC]PSFRHGSGSPSSGAPPPSG-NH2], {C20 diacid-γGlu}-EKEKEKGEKPRSSCFGKRIDRIGHQSGLGCPSFRHGSPSSGAPPPS-NH2 (bridge 14-30 via thioacetal) [HOOC-(CH2)18-CO-(γGlu)-EKEKEKGEKPRSS[CFGKRIDRIGHQSGLGC]PSFRHGSPSSGAPPPS-NH2] is lower in “cGMP Assay (EC50, pM) w/BSA, rNPRA” value: 816000 pM for the first, 341000 pM for the second.

Going from {C20 diacid}-[γGlu]EKEKEKGEK[βAla]RSSCFGKRIDRIGHYSGLGCPSFRHGSPSSGAPPPS-NH2 (bridge 15-31 via thioacetal) [HOOC-(CH2)18-CO-(γGlu)-EKEKEKGEK-βAla-RSS[CFGKRIDRIGHYSGLGC]PSFRHGSPSSGAPPPS-NH2] to B3, the “cGMP Assay (EC50, pM) w/BSA, rNPRA” value rises from 498000 pM to 623000 pM.

Going from B4 to B5, the “cGMP Assay (EC50, pM) w/BSA, rNPRA” value falls from 147000 pM to 80200 pM.

Compared with B6, B7 is higher in “cGMP Assay (EC50, pM) w/BSA, rNPRA” value: 150000 pM for the first, 696000 pM for the second.

First: B1
Second: B2
The “cGMP Assay (EC50, pM) w/Casein, rNPRA” value of the first is lower: 5650 pM for the first, 6360 pM for the second.

First: {C20 diacid-γGlu}-EKEKEKGEKPRSSCFGKRIDRIGHQSGLGCPSFRHGSGSPSSGAPPPSG-NH2 (bridge 14-30 via thioacetal) [HOOC-(CH2)18-CO-(γGlu)-EKEKEKGEKPRSS[CFGKRIDRIGHQSGLGC]PSFRHGSGSPSSGAPPPSG-NH2]
Second: {C20 diacid-γGlu}-EKEKEKGEKPRSSCFGKRIDRIGHQSGLGCPSFRHGSPSSGAPPPS-NH2 (bridge 14-30 via thioacetal) [HOOC-(CH2)18-CO-(γGlu)-EKEKEKGEKPRSS[CFGKRIDRIGHQSGLGC]PSFRHGSPSSGAPPPS-NH2]
The “cGMP Assay (EC50, pM) w/Casein, rNPRA” value of the first is higher: 2160 pM for the first, 2020 pM for the second.

Going from {C20 diacid}-[γGlu]EKEKEKGEK[βAla]RSSCFGKRIDRIGHYSGLGCPSFRHGSPSSGAPPPS-NH2 (bridge 15-31 via thioacetal) [HOOC-(CH2)18-CO-(γGlu)-EKEKEKGEK-βAla-RSS[CFGKRIDRIGHYSGLGC]PSFRHGSPSSGAPPPS-NH2] to B3, the “cGMP Assay (EC50, pM) w/Casein, rNPRA” value rises from 2010 pM to 17900 pM.

First: B4
Second: B5
The “cGMP Assay (EC50, pM) w/Casein, rNPRA” value of the first is lower: 3990 pM for the first, 4850 pM for the second.

Going from B6 to B7, the “cGMP Assay (EC50, pM) w/Casein, rNPRA” value rises from 3770 pM to 25400 pM.

What follows are binders tested against T2, human NPRA (human, UniProt P16066 33-1061) (assay: cell-based or functional assay).
T2 sequence (looked up): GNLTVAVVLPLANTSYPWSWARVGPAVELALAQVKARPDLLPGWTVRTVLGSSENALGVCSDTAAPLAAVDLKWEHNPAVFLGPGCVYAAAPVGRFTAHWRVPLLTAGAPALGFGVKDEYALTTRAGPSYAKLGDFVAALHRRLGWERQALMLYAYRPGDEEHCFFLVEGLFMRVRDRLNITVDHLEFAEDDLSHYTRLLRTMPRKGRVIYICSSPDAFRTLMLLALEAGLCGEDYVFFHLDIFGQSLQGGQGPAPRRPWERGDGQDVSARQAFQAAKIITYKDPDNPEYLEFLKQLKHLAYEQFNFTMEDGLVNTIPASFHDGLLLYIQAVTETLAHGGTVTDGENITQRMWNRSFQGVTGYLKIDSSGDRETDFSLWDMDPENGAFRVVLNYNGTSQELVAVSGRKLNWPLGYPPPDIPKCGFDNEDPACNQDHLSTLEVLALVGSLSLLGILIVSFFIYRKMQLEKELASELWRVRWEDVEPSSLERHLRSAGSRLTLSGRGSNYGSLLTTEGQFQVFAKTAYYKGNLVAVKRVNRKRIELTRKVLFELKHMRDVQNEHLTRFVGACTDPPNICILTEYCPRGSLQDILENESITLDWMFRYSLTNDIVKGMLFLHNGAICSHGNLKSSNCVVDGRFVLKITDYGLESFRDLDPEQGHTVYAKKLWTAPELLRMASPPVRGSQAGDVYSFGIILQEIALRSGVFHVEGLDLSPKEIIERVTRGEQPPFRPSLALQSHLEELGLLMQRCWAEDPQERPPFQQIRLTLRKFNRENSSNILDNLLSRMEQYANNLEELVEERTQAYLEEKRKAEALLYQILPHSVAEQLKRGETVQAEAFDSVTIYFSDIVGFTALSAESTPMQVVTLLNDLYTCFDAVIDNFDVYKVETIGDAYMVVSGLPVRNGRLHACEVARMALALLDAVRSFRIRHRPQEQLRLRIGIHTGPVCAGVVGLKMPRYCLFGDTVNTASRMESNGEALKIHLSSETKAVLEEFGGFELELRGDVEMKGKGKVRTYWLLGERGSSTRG

Going from B1 to B2, the “cGMP Assay (EC50, pM) w/BSA, hNPRA” value rises from 2830 pM to 6020 pM.

Going from {C20 diacid-γGlu}-EKEKEKGEKPRSSCFGKRIDRIGHQSGLGCPSFRHGSGSPSSGAPPPSG-NH2 (bridge 14-30 via thioacetal) [HOOC-(CH2)18-CO-(γGlu)-EKEKEKGEKPRSS[CFGKRIDRIGHQSGLGC]PSFRHGSGSPSSGAPPPSG-NH2] to {C20 diacid-γGlu}-EKEKEKGEKPRSSCFGKRIDRIGHQSGLGCPSFRHGSPSSGAPPPS-NH2 (bridge 14-30 via thioacetal) [HOOC-(CH2)18-CO-(γGlu)-EKEKEKGEKPRSS[CFGKRIDRIGHQSGLGC]PSFRHGSPSSGAPPPS-NH2], the “cGMP Assay (EC50, pM) w/BSA, hNPRA” value rises from 37600 pM to 41500 pM.

First: {C20 diacid}-[γGlu]EKEKEKGEK[βAla]RSSCFGKRIDRIGHYSGLGCPSFRHGSPSSGAPPPS-NH2 (bridge 15-31 via thioacetal) [HOOC-(CH2)18-CO-(γGlu)-EKEKEKGEK-βAla-RSS[CFGKRIDRIGHYSGLGC]PSFRHGSPSSGAPPPS-NH2]
Second: B3
The “cGMP Assay (EC50, pM) w/BSA, hNPRA” value of the first is higher: 23700 pM for the first, 12800 pM for the second.

First: B4
Second: B5
The “cGMP Assay (EC50, pM) w/BSA, hNPRA” value of the first is higher: 9550 pM for the first, 5170 pM for the second.

Going from B6 to B7, the “cGMP Assay (EC50, pM) w/BSA, hNPRA” value rises from 6380 pM to 10000 pM.

Going from B1 to B2, the “cGMP Assay (EC50, pM) w/Casein, hNPRA” value falls from 726 pM to 621 pM.

First: {C20 diacid-γGlu}-EKEKEKGEKPRSSCFGKRIDRIGHQSGLGCPSFRHGSGSPSSGAPPPSG-NH2 (bridge 14-30 via thioacetal) [HOOC-(CH2)18-CO-(γGlu)-EKEKEKGEKPRSS[CFGKRIDRIGHQSGLGC]PSFRHGSGSPSSGAPPPSG-NH2]
Second: {C20 diacid-γGlu}-EKEKEKGEKPRSSCFGKRIDRIGHQSGLGCPSFRHGSPSSGAPPPS-NH2 (bridge 14-30 via thioacetal) [HOOC-(CH2)18-CO-(γGlu)-EKEKEKGEKPRSS[CFGKRIDRIGHQSGLGC]PSFRHGSPSSGAPPPS-NH2]
The “cGMP Assay (EC50, pM) w/Casein, hNPRA” value of the first is lower: 392 pM for the first, 703 pM for the second.

First: {C20 diacid}-[γGlu]EKEKEKGEK[βAla]RSSCFGKRIDRIGHYSGLGCPSFRHGSPSSGAPPPS-NH2 (bridge 15-31 via thioacetal) [HOOC-(CH2)18-CO-(γGlu)-EKEKEKGEK-βAla-RSS[CFGKRIDRIGHYSGLGC]PSFRHGSPSSGAPPPS-NH2]
Second: B3
The “cGMP Assay (EC50, pM) w/Casein, hNPRA” value of the first is higher: 566 pM for the first, 493 pM for the second.

Going from B4 to B5, the “cGMP Assay (EC50, pM) w/Casein, hNPRA” value falls from 902 pM to 736 pM.

Compared with B6, B7 is higher in “cGMP Assay (EC50, pM) w/Casein, hNPRA” value: 490 pM for the first, 542 pM for the second.
